# Earlier results as cited in patent publication US20230220007A1, “SETD7 EPIGENETIC MODULATORS” (Biorchestra Co., Ltd., priority 2020, published 2023).
# B1: K317A: SETD7 substitution mutant at position 317 (protein)
# chain: MDSDDEMVEEAVEGHLDDDGLPHGFCTVTYSSTDRFEGNFVHGEKNGRGKFFFFDGSTLEGYYVDDALQGQGVYTYEDGGVLQGTYVDGELNGPAQEYDTDGRLIFKGQYKDNIRHGVCWIYYPDGGSLVGEVNEDGEMTGEKIAYVYPDERTALYGKFIDGEMIEGKLATLMSTEEGRPHFELMPGNSVYHFDKSTSSCISTNALLPDPYESERVYVAESLISSAGEGLFSKVAVGPNTVMSFYNGVRITHQEVDSRDWALNGNTLSLDEETVIDVPEPYNHVSKYCASLGHKANHSFTPNCIYDMFVHPRFGPIACIRTLRAVEADEELTVAYGYDHSPPGKSGPEAPEWYQVELKAFQATQQK
# How the values were obtained:
# [1] = test system: H3 and p53/TP53; conditions: cited from earlier work
# [2] = test system: TAF10; conditions: cited from earlier work
molecule,measurement,setting,value
B1,methyltransferase activity for H3 and p53/TP53,[1],increased
same,methyltransferase activity toward TAF10,[2],reduction
